# Results reported in the nanobody polyreactivity screen of Harvey et al. (2022).
# Experiment: yeast display, Sf9 membrane polyspecificity reagent, FACS + sequencing; frameworks hold sequencing errors
# Method in brief: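 Nanobodies from a synthetic yeast display library (Saccharomyces cerevisiae BJ5465), induced 36–48 hours with galactose, were stained 1 hour at 4 °C with 10% biotinylated, detergent-solubilized Sf9 membrane reagent, enriched on streptavidin microbeads, then FACS-sorted. Anti-HA (expression) and streptavidin (reagent binding) fluorescence set low and high (top ~1%) gates. Polyreactivity labels come from the gate of origin. Genes were colony-PCR amplified, MiSeq 2 × 250 sequenced and filtered by CDR length.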
row,Sequence,polyreactivity (PSR sort gate)
1,QVQLVESGGGLVQAGGSLRLSCAASGSISWAYVMGWYRQAPGKERELVAAISSGTSTYYADSVKGRFTLSRDNAKKTVYLQMNSLKPEDTAVYYCAAYYYSYPTNGGYGYWGQGTQVTVSS,low polyreactivity
2,QVQLVESGGGLVQAGGSLRLSCAASGSISWYYAMGWYRQAPGKEWEGVAAISDSGGDTYYADSVKGRFTISRDNAKNTVYLQMNSLKPEDTAVYYCAAQYRGSYRTTYDYWGQGTQVTVSS,low polyreactivity
3,QVQLVESGGGLVQAGGSLRLSCAASGSISYEFAMGWYRQAPGKERELVASIDSDGAGTYYADSVKGRFTISRDNAKNTVYLQMNSLKPEDTAVYYGNAEWYYPYYYSRMDYWGQGTQVTVSS,low polyreactivity
4,QVQLVESGGGLVQAGGSLRLSCAASGSISYEYAMGWYRPAPGKERELVASIDSDGAGTYYADSVKGRFTISRDNAKNTDYLQMNSLKPEDTAVYYCNAEWYYPYYYSRMDYWGQGTQVTVSS,low polyreactivity
5,QVQLVESGGGLVQAGGSLRLSCAASGSISYFNDMGWYRQAPGKERELVAAIRDSGGITYADSVKGRFTISRDNAKYTVYLQMNSLKPEDTAVYYCATYGNEIYDYWGQGTQVTVSS,low polyreactivity
6,QVQLVESGGGLVQAGGSLRLSCAASGSISYIYTMGWYRQAPGKERELVAAISGSGSTYYADSVKGRFTISRDNAKNTVYLQMNSLKPEDTAVHYCNAGSGGLNFQEVPQGYDYWGQGTQVTVSS,low polyreactivity
7,QVQLVESGGGLVQAGGSLRLSCAASGSISYPNAMGWYRQAPGKERELVAAINSGDRTNYADSVKGRFTISRDNAKNTVYLQMNSLKPEDTAVYYCARRRYLLWGGYGYWGQGTQVTVSS,low polyreactivity
8,QVQLVESGGGLVQAGGSLRLSCAASGSISYSNAMGWYRQAPGKERELVAAISWSTGRTYYADSVKGRFTISRDNAKNTVYLQMNSLKPEDTAVYYCATRLYPGGPYDYWGQGTQVTVSS,high polyreactivity
9,QVQLVESGGGLVQAGGSLRLSCAASGSISYTYAMGWYRQAPGKERELVAAISYSEGITYYADSVKGRFTISRDNAKNTVYLQMNSLKPEDTAVYYCAVEGVYPYYDQSEYDYWGQGTQVTVSS,high polyreactivity
10,QVQLVESGGGLVQAGGSLRLSCAASGSISYYYGKGWYRQAPGKERELVAAISTRGGSTYYADSVKGRFTISRDNAKNTVYLQMNSLKPEDTAVYYCNKVYYKRFYYWGQGTQVTVSS,high polyreactivity
11,QVQLVESGGGLVQAGGSLRLSCAASGSIVEYYAMGWYRQAPGKERELVAAISTGGSTYYADSVKGRFTISRDNAKNTVYLQMNSLKPEDTAVYYCAAEDYHPGADTVGTGYDYWGQGTQVTVSS,low polyreactivity
12,QVQLVESGGGLVQAGGSLRLSCAASGSIVNYNDMGCYRQAPGKERELVAAIDSSGTSTYYADSVKGRFTISRDNAKNTVYLQMNSLKPEDTAVYYCNADSSLGFGYWGQGTQVTVSS,low polyreactivity
13,QVQLVESGGGLVQAGGSLRLSCAASGSIVTSYAIGWYRQAPGQERELVATITRRGGSTYYADSVKGRFTISRDNSKNTVYLQMNSLKPEDTAVSYCTARSSTIVYAGDYWGLGTQVTVSS,low polyreactivity
14,QVQLVESGGGLVQAGGSLRLSCAASGSIVYPYAMGWNRQAPGKERELVAAITGHGGSTYYADSVKGRFTISRDNAKNTVYLQMNSMKPEDTAVYYCAAYRVVYSDAYYYWGQGTQVTVSS,low polyreactivity
15,QVQLVESGGGLVQAGGSLRLSCAASGSIVYSYAMGWYRQAPGKERELVATISWSGGRTNYADSVKGRITISRDTAKNSVYLLMNSLKPVDTAVYYCAADIPPWGGDYWGQGTQVTVSS,low polyreactivity
16,QVQLVESGGGLVQAGGSLRLSCAASGSIYDYNAMGWYRQAPGKERELVAAISASGGSTYYADSVKGRFTISRDNAKNTVYLQMNSLKPEDTAVYYCAAGYWSYWSLRMDYWGQGTQVTVSS,high polyreactivity
17,QVQLVESGGGLVQAGGSLRLSCAASGSIYEINAMGWYRQAPGKERELVAAITGSGGSTHYADSVKGRFTISRDNAKNTVYLQMNSLKPEDTAVYYCAAVPRYQYGYWGQGTQVTVSS,low polyreactivity
18,QVQLVESGGGLVQAGGSLRLSCAASGSIYGDYAMGWYRQAPGKERELVAAISWRGVRTYYADSVKGRFTISRDNAKNTVYLQMNSLNPEDTAVYYCDAEYYFVNRGAWYDYWGQGTQVTVSS,high polyreactivity
19,QVQLVESGGGLVQAGGSLRLSCAASGSIYGYTMGWYRQAPGKERELVAAINRRADRTYYADSVKGRFTISRDNAKNTVYLQMNSLKPEDTAVYYCNKGGWYTLGYCGQGTQVTVSS,high polyreactivity
20,QVQLVESGGGLVQAGGSLRLSCAASGSIYLWKAMGWYRQAPGKERELVAAIDSGGSTYAESVKGRFTISRDNAKNTVYLQMNSLKPEDTAVYYCAAEIPDEWPYDYWGQGTQVTVSS,low polyreactivity
21,QVQLVESGGGLVQAGGSLRLSCAASGSIYPDYDMGWYRQAPGKERELVAAISSSGDSTYYADSVKGRFTISRDNAKNTVYLQMNSLKPEDTAVYYCAVDGTRSTSNGSEFTGYNYWGQGTHVTVSS,low polyreactivity

row,Sequence,polyreactivity (PSR sort gate)
1,QVQLVESGGGLVQAGGSLRLSCAASGSIYVWYDMGWYRQAPGKERELVDTISLSGVSTYYADSVKGRFTISRDNAKNTVYLQMNSLKPEDTAVYYCAADFVEQGEDDYWGQGTQVTVSS,low polyreactivity
2,QVQLVESGGGLVQAGGSLRLSCAASGSIYYNAMGWYRQAPGKERELVAAISTSGGTTYYADSVKGRFTISRDNAKNTVYLQMNSLKPEDTAVYYCNALSVPDYDYWGQGTQVTVSS,high polyreactivity
3,QVQLVESGGGLVQAGGSLRLSCAASGSIYYRYAMGWYRQAPGKERELVAAISKRGGSTYYADSVKGRFTISRDNAKITVYLQMNRLKPEDTAVYYCAAEVSSFLYTPSYSTDDYWGQGTQVTVSS,high polyreactivity
4,QVQLVESGGGLVQAGGSLRLSCAASGSIYYWYASGWYIHAPGKERELVAAITSGGSTNYADSVKGRFTISRDNAKNTVYLQMNSLKPEDTAVYYCAASSVLTNHDYWGQGTQVTVSS,low polyreactivity
5,QVQLVESGGGLVQAGGSLRLSCAASGSLFGRYAMGWYRQAPGTEREFVAAISRGATNTYYADSVKGRFTISRDNAKNTVYLQMNSLKPEDTAVYYCARTQRYDYGYDYWGQGTQVTVSS,low polyreactivity
6,QVQLVESGGGLVQAGGSLRLSCAASGSLFRINAMGWYRQAPGKERELVAAITGRVGSTYYADTVKGRFTISRDNAQNTVYLQMNSLKPEDTAVYYCAARAGSSRYTREYRYDYWGQGTQVTVSS,high polyreactivity
7,QVQLVESGGGLVQAGGSLRLSCAASGSLFTSYAMGWYRQAPGKERELVAAIRESGGRTYYADSVKGRFTISRDNAKNTVYLQMNSLKPEDTAVYYCAADSRVGFGRLYGYWGQGTQVTVSS,high polyreactivity
8,QVQLVESGGGLVQAGGSLRLSCAASGSLFYSNTMGWYRQAPGKERELVAAISRGGSTYYADSVKGRFTISRDNAKNTVYLQMNSLKPEDTAVYYCAARYRWAPAYDYWGQGTQVTVSS,high polyreactivity
9,QVQLVESGGGLVQAGGSLRLSCAASGSLIGQNAMGWYRQAPGKERELVATISRSGARTYYADSVKGRFTISRDIAKNTVYLQMNSLKPEDTAVYYCAARLLSVGVPMYSWGQGTQVTVSS,high polyreactivity
10,QVQLVESGGGLVQAGGSLRLSCAASGSMFGYYAMGWYRQATGKERELVASIRRGSSTNYADSVKGRFTISRDNAKNTVYLQMNSLKPEDTAVYYCNAVLLSYDARGYSNLYDYWGQGPQVTVSS,low polyreactivity
11,QVQLVESGGGLVQAGGSLRLSCAASGSMFSTYAMGWYRQAPGKERELVAASSRSGGSTYYADSVKGRFTISRDNAKNTVYLQMNSLKPEDTADYYCAKVARRQRYDYWGQGTQVTVSS,high polyreactivity
12,QVQLVESGGGLVQAGGSLRLSCAASGSNFANYAMGWYIQAHGKERELVAAISWSGSSTYYADSVKGRFTISRYNAKNTVYLQMNSLKPEDTAVYYCAADYATPTWEYYYWGQGTQVTVSS,low polyreactivity
13,QVQLVESGGGLVQAGGSLRLSCAASGSNFDPIVMGGYRKAPGKERELVAAIDVSGGSTYYADSVKGRFTISRDNAKNTVYLQMNSLKPEDTAVYYCAADAEGSASKYDYWGQGTQVTVSS,low polyreactivity
14,QVQLVESGGGLVQAGGSLRLSCAASGSNFETNSMGGYRQAPGQERELVAVIWRGASTYYADSVKARFTISRDNAKNTVNLQMNSLKPDDTAVYYCNARPAYAGRYAYTRYYWGQGTQVTVSS,low polyreactivity
15,QVQLVESGGGLVQAGGSLRLSCAASGSNFFLYAMGWYRQAPGKEREFVAAITGTADSTYYADSVKGRFTISRDDAKNTVYLQMNSLKPEDTAVYYCATDYWSSVKLDDYWGQGTQVTVSS,low polyreactivity
16,QVQLVESGGGLVQAGGSLRLSCAASGSNFGEYAMGWYRQAPGKERELVAAITSGGNTYYADSVKGRFTISRDNAKNTVYLQMNSLKPEDTAVYYCAATRTRYWGGDYWGQGTQVTVSS,low polyreactivity
17,QVQLVESGGGLVQAGGSLRLSCAASGSNFGYYAMAWYRQAPGKERELVAVITWNTGNTYYADSVKGRFTISRDNAKNTVYLQMNRLKPEDTAVYYCAADQTGWGDTYDYWGQGTEVTVSS,low polyreactivity
18,QVQLVESGGGLVQAGGSLRLSCAASGSNFHPYAMGWYRPAPGKEREFVAAITFRGSTYYADSVKGRFTISRDNAKNTVYLQLNSLKPEDTAVYYCAARYNIFRRGSRNYDYWGQGTEVTVSS,high polyreactivity
19,QVQLVESGGGLVQAGGSLRLSCAASGSNFINNAMGWYRQAPGKERELVAAISYSGGRTYYADSVKGRFTISRDNAKNTVYLQMNSLKPEDTAVYYCAADRSHRMNWGQGTQVTVSS,high polyreactivity
20,QVQLVESGGGLVQAGGSLRLSCAASGSNFKRYTMGLYRQAPGKEWELVAAISTSSGSTYYADSVKGRFTISRDNANNSVYLQMNSLKPEDTAVYYCAAVRHRQTYPKYNYWGQGTQVTVSS,high polyreactivity
